In the test the target is biotinylated nerve growth factor (NGF) (human, UniProt P01138 122-241, biotin (biotinylated in-house, sites not stated)). The test can be described thus: FRET; epitope competition with labelled IgGWFL.

A word on the IC50: it is the concentration needed to halve the response being measured. A high value points to weaker potency in that assay.

biotinylated nerve growth factor (NGF), sequence (P01138 122-241): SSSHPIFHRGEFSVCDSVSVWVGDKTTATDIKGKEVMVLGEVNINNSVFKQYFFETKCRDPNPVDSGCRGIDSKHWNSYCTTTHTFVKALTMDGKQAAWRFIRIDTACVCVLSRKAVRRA

B1: evolved scFvWFL variant 37 reformatted as IgG1 (antibody, V domains shown)
VH: QVQLVPSGAEVKKPGSSVKVSCKASGGTFWFGAFTWVRQAPGQGLEWMGGIIPTFGLTNLAQNFQGRVTITADESTSTVYMELSSLRSEDTAVYYCARSSRIYDLNPSLTAYYDMDVWGQGTMVTVSS
VL: QSVLTQPPSVSAAPGQKVTISCSGPSSDIGNNYVSWYQQLPGTAPKLLIYDNNKRPSGIPDRFSGSKSGTSATLGITGLQTGDEADYYCGTWDSSLSAWVFGGGTKLTVL
On to B1, for which the IC50 turned out to be 136 pM.

B2: IgGSTT, variant of MEDI1912 with W35S, F36T and L64T in VH (antibody, V domains shown)
VH: QVQLVQSGAEVKKPGSSVKVSCKASGGTFSTGAFTWVRQAPGQGLEWMGGIIPIFGTTNLAQNFQGRVTITADESTSTVYMELSSLRSEDTAVYYCARSSRIYDLNPSLTAYYDMDVWGQGTMVTVSS
VL: QSVLTQPPSVSAAPGQKVTISCSGSSSDIGNNYVSWYQQLPGTAPKLLIYDNNKRPSGIPDRFSGSKSGTSATLGITGLQTGDEADYYCGTWDSSLSAWVFGGGTKLTVL
Take B2: the IC50 came out at 573 pM.

B3: evolved scFvWFL variant 126 reformatted as IgG1 (antibody, V domains shown)
VH: QVQLVQSGAEVKKPGSSVKVSCKASGGTFWFGAFTWVRQAPGQGLEWMGGFIPISGLTNLAQNFQGRVTITADESTSTVYMELSSLRSEDTAVYYCARSSRIYDLNPSLTAYYDMDVWGQGTMVTVSS
VL: QSVLTQPPSVSAAPGQKVTISCSGSSSDIGNNYVSWYQQLPGTAPKLLIYDNNKRPSGIPDRFSGSKSGTSATLGITGLQTGDEADYYCGTWDSSLSAWVFGGGTKLTVL
In turn, B3 returned an IC50 of 5690 pM.

B4: evolved scFvWFL variant 130 reformatted as IgG1 (antibody, V domains shown)
VH: QVQLVQSGAEVKKPGSSVKVSCKASGGAFWFGAFTWVRQAPGQGLEWMGGITPIFGHTNLAQNFQGRVTITADESTSTVYMELSSLRSEDTAVYYCARSSRIYDLNPSLTAYYDMDVWGQGTMVTVSS
VL: QSVLTQPPSVSAAPGQKVTISCSGSSSDIGNNYVSWYQQLPGTAPKLLIYDNNKRPSGIPDRFSGSKSGTSATLGITGLQTGDEADYYCGTWDSSLSAWVFGGGTKLTVL
Turning to B4, the IC50 stood at 2060 pM.

B5: evolved scFvWFL variant 176 reformatted as IgG1 (antibody, V domains shown)
VH: QVQLVRSGAEVKKPGSSVKVSCKASGGTFWFGAFTWVRQAPGQGLEWMGGIIPIFGLTNLAQNFQGRVTITADESTSTVYMELSSLRSEDTAVYYCARSSRIYDLNPSLTAYYDMDVWGQGTMVTVSS
VL: QSVLTQPPSVSAAPGQKVTISCSGSSSDIGNNYVSWYQQLPGTAPKLLIYDNNKRPSGIPDRFSGSKSGTSATLGITGLQTGDEADYYCGTWDSSLSAWVFGGGTKLTVL
Take B5: the IC50 came to 201 pM.

B6: evolved scFvWFL variant 59 reformatted as IgG1 (antibody, V domains shown)
VH: QVQLVQSGAEVKKPGSSVKVSCKASGGTFRFGAFTWARQAPGQGLEWMGGIIPIFGLTNLAQNFQGRATITADESTSTVYMELSSLRSEDTAVYYCARSSRIYDLNPSLTAYYDMDVWGQGTMVTVSS
VL: QSVLTQPPSVSAAPGQKVTISCSGSSSDIGNNYVSWYQQLPGTAPKLLTYDNNKRPSGIPGRFSGSKSGTSATLGITGLQTGDEADYYCGTWDSSLSAWVFGGGTKLTVL
The molecule B6 returned an IC50 of 177 pM.

B7: IgGWFL (MEDI1912), human IgG1 antibody specific for human nerve growth factor (antibody, V domains shown)
VH: QVQLVQSGAEVKKPGSSVKVSCKASGGTFWFGAFTWVRQAPGQGLEWMGGIIPIFGLTNLAQNFQGRVTITADESTSTVYMELSSLRSEDTAVYYCARSSRIYDLNPSLTAYYDMDVWGQGTMVTVSS
VL: QSVLTQPPSVSAAPGQKVTISCSGSSSDIGNNYVSWYQQLPGTAPKLLIYDNNKRPSGIPDRFSGSKSGTSATLGITGLQTGDEADYYCGTWDSSLSAWVFGGGTKLTVL
In turn, B7 showed an IC50 of 363 pM.

B8: evolved scFvWFL variant 16 reformatted as IgG1 (antibody, V domains shown)
VH: QVQLVQSGAEVKKPGSSVKVSCKASGGTFWSGAFTWVRQAPGQGLEWMGGIIPISGLTNLAQNFQGRVTITADESTSTAYMELSSLRSEDTAVYYCARSSRIYDLNPSLTAYYDMDVWGQGTMVTVSS
VL: QSVLTQPPSVSAAPGQKVTISCSGSSSDIGNNYVSWYQQLPGTAPKLLIYDNNKRPSGIPDRFSGSKSGTSATLGITGLQTGDEADYYCGTWDSSLSAWVIGGGTKLTVL
B8: the IC50 is 935 pM.

B9: MEDI578 (the parent antibody prior to affinity maturation into MEDI1912) (antibody, V domains shown)
VH: QVQLVQSGAEVKKPGSSVKVSCKASGGTFSTYGISWVRQAPGQGLEWMGGIIPIFDTGNSAQSFQGRVTITADESTSTAYMELSSLRSEDTAVYYCARSSRIYDLNPSLTAYYDMDVWGQGTMVTVSS
VL: QSVLTQPPSVSAAPGQKVTISCSGSSSNIGNNYVSWYQQLPGTAPKLLIYDNNKRPSGIPDRFSGSKSGTSATLGITGLQTGDEADYYCGTWDSSLSAWVFGGGTKLTVL
For the molecule B9, the IC50 was determined as 36800 pM.

B10: evolved scFvWFL variant 139 reformatted as IgG1 (antibody, V domains shown)
VH: QVQLVQSGAEVKKPGSSVKVSCKAGGGTFWSGAFTWVRQAPGQGLEWMGGIIPIFGLTNLAQNFQGRVTITADESTSTVYMELSSLRSEDTAVYYCARSSRTYDLNPSLTAYYDMDVWGQGTMVTVSS
VL: QSVLTQPPSVSAAPGQKVTISCSGSSSDIGNNYVSWYQQLPGTAPKLLIYDNNKRPSGIPDRFSGSKSGTTATLGITGLQTGDEADYYCGTWDSSLSAWVFGGGTKLTVL
Molecule B10 gave a concentration for half-maximal inhibition (IC50) of 649 pM.

B11: evolved scFvWFL variant 128 reformatted as IgG1 (antibody, V domains shown)
VH: QVQLVQSGAEVKKPGSSVKVSCKASGGTFWFGAFTWVRQAPGQGLEWMGGIIPIFGLTNLAQNFQGRVTITADESTSTVYMELSSLRSEDTAVYYCARSSRIYDLNPSLTADYDMDVWGQGTMVTVSS
VL: QSVLTQPPSVSAAPGQEVTISCSGSSSDIGNNYVSWYQQPPGAAPKLLIYDNNKRPSGIPDRFSGSKSGTSATLGITGLQTGDEADYYCGTWDSSLSAWVFGGGTKLTVL
In the case of B11, the IC50 is 1410 pM.

B12: evolved scFvWFL variant 11 reformatted as IgG1 (antibody, V domains shown)
VH: QVQLVRSGAEVKKPGSSVKVSCKASGGTFWFGAFTWVRQAPGQGLEWMGGIIPIFGLTNLAQNFQGRVTITADESTSTVYMELSSLRSEDTAVYYCARSSRIYDLNPSLAAYYDMDVWGQGTMVTVSS
VL: QSVLTQPPSVSAAPGQKVTIPCSGSSSDIGNNYVSWYQQLPGTAPKLLIYDNNKRPSGIPDRFSGSKSGTSATLGVTGLQTGDEADYYCGTWDSSLSAWVFGGGTKLTVL
B12 came in with a half-maximal inhibitory concentration (IC50) of 251 pM.

B13: evolved scFvWFL variant 72 reformatted as IgG1 (antibody, V domains shown)
VH: QVQLVQSGAEVKKPGSSVKVSCKASGGTSWFGAFTWVRQAPGQGLEWMGGTIPIFGLTNLAQNFQGRVTITADESTSTVYMELSSLRSDDTAVYYCARSSRIYDLNPSLTAYYDMGVWGQGTMVTVSS
VL: QSVLTQPPSVSAAPGQKVTISCSGSSSDIGDNYVSWYQQLPGTAPKLLIYDNNKRPSGIPDRFSGSKSGTSATLGITGLQTGDEADYYCGTWDSSLSAWVFGGGTKLTVL
As for B13, the IC50 came to 1910 pM.

Source of the values: publication PMC7156504 (2020).
